Ends that are not written are not given here.
T1: recombinant PotH (E. coli) with C-terminal 10-His tag (E. coli, UniProt P31135 1-317)
T1 sequence (looked up): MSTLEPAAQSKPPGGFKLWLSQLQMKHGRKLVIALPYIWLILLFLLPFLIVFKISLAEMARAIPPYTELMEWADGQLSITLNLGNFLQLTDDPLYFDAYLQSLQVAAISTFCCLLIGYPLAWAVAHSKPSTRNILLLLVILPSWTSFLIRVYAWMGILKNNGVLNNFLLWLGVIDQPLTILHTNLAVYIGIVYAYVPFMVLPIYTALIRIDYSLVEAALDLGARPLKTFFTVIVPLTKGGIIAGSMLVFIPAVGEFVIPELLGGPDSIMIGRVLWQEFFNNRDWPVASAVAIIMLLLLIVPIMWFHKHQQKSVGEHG

B1: Cys(N)-N-104 immobilized on SulfoLink Coupling resin (peptide)
peptide: AQKLLKKFSLLKPWA

Biological target: thrombin (F2) C-terminal peptide GKY20 (human)
Test: far-Western, overlay or dot blot

binding result | Binder
binds | AQKSSKKSSSSKPSA (peptide, UniProt Q9GZZ8 124-138, looked up) [N-104 L108S/L109S/F112S/L114S/L115S/W118S]

Biological target: B1
Test: pull-down

binding result | Binder
binds | Ac-WMGILKNNGVLNNFLLWLGVIDQPLTILHTN-NH2 [PotH outer loop 2 synthetic peptide]

Biological target: thrombin (F2) C-terminal peptide GKY20 (human)
Test: far-Western, overlay or dot blot
Remark: another data set of the same source

binding result | Binder
binds | Ac-AQKLLKKFSLLKPWA [lacritin peptide N-104]
binds | AQKLLKKFSSLKPWA (peptide, UniProt Q9GZZ8 124-138, looked up) [N-104:L114S]
binds | AQKLLKKFSLLKPSA (peptide, UniProt Q9GZZ8 124-138, looked up) [N-104:W118S]
binds | AQKLSKKFSLLKPWA (peptide, UniProt Q9GZZ8 124-138, looked up) [N-104:L109S]
binds | AQKSLKKFSLLKPWA (peptide, UniProt Q9GZZ8 124-138, looked up) [N-104:L108S]
binds | AQSLLKKFSLLKPWA (peptide, UniProt Q9GZZ8 124-138, looked up) [N-104:K107S]
binds | AQKLLKKFSLSKPWA (peptide, UniProt Q9GZZ8 124-138, looked up) [N-104:L115S]
binds | AQKLLKKSSLLKPWA (peptide, UniProt Q9GZZ8 124-138, looked up) [N-104:F112S]
binds | AQKLLKKFSLLSPWA (peptide, UniProt Q9GZZ8 124-138, looked up) [N-104:K116S]
binds | AQKLLSKFSLLKPWA (peptide, UniProt Q9GZZ8 124-138, looked up) [N-104:K110S]
binds | AQKLLKSFSLLKPWA (peptide, UniProt Q9GZZ8 124-138, looked up) [N-104:K111S]

Biological target: T1, recombinant PotH (E. coli) with …
Test: pull-down

binding result | Binder
binds | B1

From article PMC10925246 (bioRxiv, 2024)
